Test results reported in paper PMC4309443.
Values belong to the molecule of their own block, whether it stands above or below them.

Columns and labels:
[1] = biological target: recombinant human TAF8, full length (human) (UniProt Q7Z7C8); assay: AUC; sedimentation velocity, absorbance at 280 nm, 42,000 r.p.m., 10 °C; c(s) analysis with Sedfit
[2] = biological target: recombinant human TAF2, full length (human); assay: native MS; TAF2–8–10 in 500 mM ammonium acetate pH 7.5, Q-ToF II, collision-induced dissociation
[3] = biological target: recombinant human TAF2, full length (human); assay: AUC; sedimentation velocity, absorbance at 280 nm, 42,000 r.p.m., 10 °C; c(s) analysis with Sedfit
[4] = biological target: truncated Importin α1 (residues 71–497) (UniProt P52292); assay: ITC; MicroCal iTC200, 25 °C; 1.5 mM TAF8 peptide injected into 39 μM Importin α1; 25 mM Tris-HCl pH 8.0, 150 mM NaCl, 1 mM β-mercaptoethanol; one-site model; duplicates
[5] = biological target: recombinant human TAF2, full length (human); assay: SPR; BIACORE 3000, 25 °C; TAF2 amine-coupled to CM5 (2,500 RU); MBP–TAF8 analytes at 500 nM; 25 mM HEPES-NaOH pH 7.0, 300 mM NaCl, 0.01% NP-40

B1: MBP–TAF8 (residues 105–260) (domain or fragment)
chain: DTLPAYAKRSQRMVITAPPVTNQPVTPKALTAGQNRPHPPHIPSHFPEFPDPHTYIKTPTYREPVSDYQVLREKAASQRRDVERALTRFMAKTGETQSLFKDDVSTFPLIAARPFTIPYLTALLPSELEMQQMEETDSSEQDEQTDTENLALHISM
maximal association level [5]: < 10 RU

B2: MBP–TAF8 (residues 200–310) (domain or fragment)
chain: TQSLFKDDVSTFPLIAARPFTIPYLTALLPSELEMQQMEETDSSEQDEQTDTENLALHISMEDSGAEKENTSVLQQNPSLSGSRNGEENIIDNPYLRPVKKPKIRRKKSLS
maximal association level [5]: < 10 RU

B3: MBP–TAF8 (residues 141–310) (domain or fragment)
chain: PHPPHIPSHFPEFPDPHTYIKTPTYREPVSDYQVLREKAASQRRDVERALTRFMAKTGETQSLFKDDVSTFPLIAARPFTIPYLTALLPSELEMQQMEETDSSEQDEQTDTENLALHISMEDSGAEKENTSVLQQNPSLSGSRNGEENIIDNPYLRPVKKPKIRRKKSLS
maximal association level [5]: 40 RU

B4: MBP–TAF8 (residues 105–310) (domain or fragment)
chain: DTLPAYAKRSQRMVITAPPVTNQPVTPKALTAGQNRPHPPHIPSHFPEFPDPHTYIKTPTYREPVSDYQVLREKAASQRRDVERALTRFMAKTGETQSLFKDDVSTFPLIAARPFTIPYLTALLPSELEMQQMEETDSSEQDEQTDTENLALHISMEDSGAEKENTSVLQQNPSLSGSRNGEENIIDNPYLRPVKKPKIRRKKSLS
maximal association level [5]: 85 RU

Further lines, results first:

stoichiometry N [1]: 1
Molecule: recombinant human TAF10, full length (natural protein)

stoichiometry N [2]: 1
stoichiometry N [3]: 1
Molecule: TAF8–10 complex (full-length TAF8 and TAF10) (from UniProt Q7Z7C8-1 1-310)

Kd [4]: 10.4 µM
dH [4]: -18.5 kcal/mol
stoichiometry N [4]: 1
Molecule: TAF8 NLS peptide used for ITC (printed as residues 288–310)
